From patent US20040063907A1 (published 2004)

T1: purified recombinant C35 protein generated in E. coli (human, UniProt Q9BRT3 1-115, limits assumed)
T1 construct: also called hC35 protein; soluble C35 protein
T1 sequence: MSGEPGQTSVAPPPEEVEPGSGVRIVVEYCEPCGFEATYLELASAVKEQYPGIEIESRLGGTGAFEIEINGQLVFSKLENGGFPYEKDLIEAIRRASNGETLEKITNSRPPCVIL

T2: C35 as expressed by cells or tissue (flow cytometry, immunohistochemistry) (human, UniProt Q9BRT3 2-112)
T2 construct: also called endogenous C35
T2 sequence: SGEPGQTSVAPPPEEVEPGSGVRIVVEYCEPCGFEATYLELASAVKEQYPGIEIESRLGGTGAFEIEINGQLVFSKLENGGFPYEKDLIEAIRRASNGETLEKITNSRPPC

T3: C35 protein, bacterially synthesized (recombinant human C35 purified from E. coli) (human, UniProt Q9BRT3 1-115, limits assumed)
T3 construct: also called hC35; recombinant C35 protein
T3 sequence: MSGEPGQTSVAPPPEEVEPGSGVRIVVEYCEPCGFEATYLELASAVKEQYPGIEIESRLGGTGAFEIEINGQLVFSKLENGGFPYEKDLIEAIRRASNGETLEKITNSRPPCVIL

T4: C35 polypeptide, as expressed by human tumor cells and breast tumor tissue (human, UniProt Q9BRT3 2-112)
T4 construct: 115 amino acid protein with a predicted prenylation motif CVIL at 112-115; It was detected on unfixed, non-permeabilized tumor cells and in paraffin sections; also called C35 protein; C35 antigen
T4 sequence: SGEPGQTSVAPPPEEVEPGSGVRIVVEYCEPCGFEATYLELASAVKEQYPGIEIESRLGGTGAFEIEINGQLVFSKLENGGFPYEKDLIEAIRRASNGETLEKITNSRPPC


Columns and labels:
soluble HLA-B*0702 = soluble HLA-B*0702 (human); test: fluorescence polarization competition against the fluorescent labeled standard on soluble HLA-B*0702
HLA-A*0201 = HLA-A*0201 (human); test: fluorescence polarization competition, test peptide at 100 uM against the fluorescent-labeled peptide on HLA-A*0201, from Ymax
[1] = molecular target: T5, Beta galactosidase (negative control protein purified from E. coli) (UniProt P00722 1-1024 = β-galactosidase, limits assumed); test: ELISA, hybridoma supernatant on coated protein, anti-mouse HRP
T5 construct: also called β-galactosidase; p-galactosidase
T5 sequence (P00722 whole entry): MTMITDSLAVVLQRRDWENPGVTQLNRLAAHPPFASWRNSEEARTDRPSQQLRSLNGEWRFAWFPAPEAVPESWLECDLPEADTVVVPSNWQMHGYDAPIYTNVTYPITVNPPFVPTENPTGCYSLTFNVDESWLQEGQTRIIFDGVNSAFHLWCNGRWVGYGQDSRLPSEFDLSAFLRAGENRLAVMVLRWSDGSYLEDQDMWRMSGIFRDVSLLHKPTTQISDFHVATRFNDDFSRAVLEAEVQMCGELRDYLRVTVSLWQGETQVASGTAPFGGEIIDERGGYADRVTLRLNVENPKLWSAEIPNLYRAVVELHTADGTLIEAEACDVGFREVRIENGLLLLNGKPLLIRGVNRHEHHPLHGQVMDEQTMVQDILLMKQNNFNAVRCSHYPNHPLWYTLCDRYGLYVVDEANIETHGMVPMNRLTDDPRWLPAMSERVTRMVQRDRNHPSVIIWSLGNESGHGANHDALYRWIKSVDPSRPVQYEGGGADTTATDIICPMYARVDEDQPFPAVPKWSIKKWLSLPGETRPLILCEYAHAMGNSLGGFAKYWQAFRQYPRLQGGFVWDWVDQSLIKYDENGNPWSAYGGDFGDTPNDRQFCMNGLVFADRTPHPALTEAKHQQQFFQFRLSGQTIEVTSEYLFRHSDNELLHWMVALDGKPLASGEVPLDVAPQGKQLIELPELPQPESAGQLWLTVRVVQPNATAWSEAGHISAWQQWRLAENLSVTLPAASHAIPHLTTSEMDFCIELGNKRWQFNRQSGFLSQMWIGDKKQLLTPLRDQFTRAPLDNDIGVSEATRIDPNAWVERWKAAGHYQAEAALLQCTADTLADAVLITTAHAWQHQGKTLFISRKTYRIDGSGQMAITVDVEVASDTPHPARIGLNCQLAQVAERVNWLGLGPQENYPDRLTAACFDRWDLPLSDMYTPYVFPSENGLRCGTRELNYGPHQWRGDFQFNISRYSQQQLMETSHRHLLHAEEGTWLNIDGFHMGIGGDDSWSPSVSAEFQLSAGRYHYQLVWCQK

[2] = molecular target: T1, purified recombinant C35 protein …; test: ELISA, hybridoma supernatant on coated C35 protein, anti-mouse HRP
[3] = molecular target: T2, C35 as expressed by cells or tissue …; test: immunohistochemistry of breast tumour sections
[4] = molecular target: T3, C35 protein, bacterially synthesized …; test: ELISA screen of hybridoma supernatants on plates coated with C35 protein
[5] = molecular target: T4, C35 polypeptide, as expressed by human …; test: immunohistochemistry on paraffin sections, affinity purified antibody

Row | Binder | % inhibition (soluble HLA-B*0702) [%] | % inhibition (HLA-A*0201) [%] | also measured
1 | EPGQTSVAP [C35 peptide E4 to P12] | 54.6 |  | 
2 | NSRPPAVIL [C35 peptide N107 to L115 (analog with Ala substituted for Cys at 112)] | 68.2 |  | 
3 | FEIEINGQL [C35 peptide F65 to L73] |  | 74.8 | 
4 | GAFEIEING (also called GAFEIEING) [C35 peptide G63 to G71] | 51.4 |  | 
5 | SVAPPPEEV [C35 peptide S9 to V17] |  | 96.9 | 
6 | GTGAFEIEI [C35 peptide G61 to I69] |  | 46.5 | 
7 | TYLELASAV [C35 peptide T38 to V46] |  | 47.3 | 
8 | SGVRIVVEY [C35 peptide S21 to Y29] |  | 90.8 | 
9 | KITNSRPPA [C35 peptide K104 to A112 (analog with Ala substituted for Cys at 112)] | 69.4 |  | 
10 | TGAFEIEIN (also called TGAFEIEIN) [C35 peptide T62 to N70] | 38.8 |  | 
11 | 1E11 monoclonal antibody (antibody, mouse IgG1, V domains shown, also called IE11) VH: DVQLQESGPGLVKPSQSLSLTCSVTGYSITSGYFWNWIRQFPGNKLEWMGYISYDGSNNSNPSLKNRISFTRDTSKNQFFLKFNSVTTDDSAAYYCTRGTTGFAYWGQGTLVTVSA VL: QIVLTQSPAIMSASPGEKVTISCSASSSVSYMNWYQQKPGSSPKPWIYHTSNLASGVPARFSGSGSGTSYSLTISSMEAEDAATYYCQQYHSYPPTFGGGTKLEIK |  |  | binding result [1]: no binding; binding result [2]: binds
12 | monoclonal antibody of hybridoma clone 1F2 (antibody, V domains shown, also called IF2) VH: DVQLQESGPGLVKPSQSLSLTCSVTGYSITSGYFWNWIRQFPGNKLEWMGYISYDGSNNSNPSLKNRISFTRDTSKNQFFLKFNSVTTDDSAAYYCTRGTTGFAYWGQGTLVTVSA VL: QIVLTQSPAIMSASPGEKVTISCSASSSVSYMNWYQQKPGSSPKPWIYHTSNLASGVPARFSGSGSGTSYSLTISSMEAEDAATYYCQQYHSYPPTFGGGTKLEIK |  |  | binding result [3]: binds; binding result [4]: binds
13 | monoclonal antibody of hybridoma clone 1E11 (antibody, mouse IgG1, V domains shown, Mouse IgG1 kappa, immunization BCA34.hC35; See the note of 1F2 for a translation; also called IE11) VH: DVQLQESGPGLVKPSQSLSLTCSVTGYSITSGYFWNWIRQFPGNKLEWMGYISYDGSNNSNPSLKNRISFTRDTSKNQFFLKFNSVTTDDSAAYYCTRGTTGFAYWGQGTLVTVSA VL: QIVLTQSPAIMSASPGEKVTISCSASSSVSYMNWYQQKPGSSPKPWIYHTSNLASGVPARFSGSGSGTSYSLTISSMEAEDAATYYCQQYHSYPPTFGGGTKLEIK |  |  | binding result [4]: binds
14 | 1F2 monoclonal antibody (antibody, V domains shown, Mouse IgG1 kappa; In the VL, one printed codon 'get' was read as gct; also called IF2) VH: DVQLQESGPGLVKPSQSLSLTCSVTGYSITSGYFWNWIRQFPGNKLEWMGYISYDGSNNSNPSLKNRISFTRDTSKNQFFLKFNSVTTDDSAAYYCTRGTTGFAYWGQGTLVTVSA VL: QIVLTQSPAIMSASPGEKVTISCSASSSVSYMNWYQQKPGSSPKPWIYHTSNLASGVPARFSGSGSGTSYSLTISSMEAEDAATYYCQQYHSYPPTFGGGTKLEIK |  |  | binding result [1]: no binding; binding result [5]: binds; binding result [2]: binds
15 | ITNSRPPAV [C35 peptide I105 to V113 (analog with Ala substituted for Cys at 112)] | 45.2 |  | 
16 | 1B3 monoclonal antibody (antibody, mouse IgG1, V domains shown, Mouse IgG1, tested as hybridoma supernatant) VH: EVQLQESGPSLVKPSQTLSLTCSVTGDSITSGYWNWIRKFPGNKLEYVGYISYSGGTYYNPSLKSRISITRDTSKNHYYLQLNSVTTEDTATYYCARGAYYGGAFFPYFDVWGAGTTVTVSS VL: DVQITQSPSFLAASPGETITINCRASKYISKHLVWYQEKPGETKKLLIYSGSTLQSGLPSRFSGSGSGTDFTLTISSLEPEDFAMYYCQQHNEYPLTFGAGTKLELK |  |  | binding result [1]: no binding
17 | 3E10 monoclonal antibody (antibody, V domains shown) VH: EVQLQESGPSLVKPSQTLSLTCSVTGDSITSGYWNWIRKFPGNKLEYVGYISYSGGTYYNPSLKSRISITRDTSKNHYYLQLNSVTTEDTATYYCARGAYYGGAFFPYFDVWGAGTTVTVSS VL: DVQITQSPSFLAASPGETITINCRASKYISKHLVWYQEKPGETKKLLIYSGSTLQSGLPSRFSGSGSGTDFTLTISSLEPEDFAMYYCQQHNEYPLTFGAGTKLELK |  |  | binding result [1]: no binding
18 | ITNSRPPCV [C35 peptide I105 to V113] |  | 86.4 | 
